Assay results taken from patent JP2014185312A (dated 2014).
No end group written: not given here.

B1: pe-PEG20 (HER2-binding peptide of SEQ ID NO 3 modified with ICG and bound to monomaleimide linear PEG ME-200MA, MW 20000) (peptide)
peptide: MARSGLGGKGSC
modifications: not fully specified (residue 12); also: labelled with ICG-Sulfo-OSu, position not given here
notes: Tested as the PEG/ICG conjugate; also called pe−PEG20
B2: pe-PEG40 (HER2-binding peptide of SEQ ID NO 3 modified with ICG and bound to monomaleimide linear PEG ME-400MA, MW 40000) (peptide)
peptide: MARSGLGGKGSC
modifications: not fully specified (residue 12); also: labelled with ICG-Sulfo-OSu, position not given here
notes: Tested as the PEG/ICG conjugate; also called pe−PEG40

Target: T1, Recombinant Human ErbB2/Fc Chimera (R&D Systems) (human, UniProt P04626 23-652)
T1 construct: Bought reagent, immobilised by amine coupling on a GLM sensor chip (about 3000 RU); also called HER2; not shown: Fc part (and any linker or tag) of the bought chimera; not described
Test: SPR (ProteOn XPR36), ErbB2/Fc immobilised on GLM chip, conjugate as analyte, 1:1 Langmuir fit

Binder	binding result
B1	binds
B2	binds
